Data from patent US20200270325A1 (Merck Sharp & Dohme, published 2020).
Numbered stars: 1 amine (or outer) side, 2 acyl side, 3 side chain; on linkers, the order of the positions; unused ones are H or OH. Square brackets hold non-standard residues; d marks the D form. Side chains are listed from the residue outwards. Ends that are not written are not given here. * marks the point of attachment. Phe(4-CH2NH2) = NCc1ccc(C[C@H](N)C(=O)O)cc1; C18 diacid = O=C(O)CCCCCCCCCCCCCCCCC(=O)*; C16 diacid = O=C(O)CCCCCCCCCCCCCCC(=O)*; γGlu = O=C(O)[C@H](CCC(=O)[*:2])N[*:1]; Met(O2) = CS(=O)(=O)CC[C@H](N)C(=O)O; αMeD = C[C@](N)(CC(=O)O)C(=O)O; αMeS = C[C@](N)(CO)C(=O)O; AEEA = NCCOCCOCC(=O)O; Aib = CC(C)(N)C(=O)O

B1: TP639 (peptide)
peptide: H[Aib]QGTFTSDYSKYLDARAAQDFV[Phe(4-CH2NH2)]([γGlu-C18 diacid])WLLDT-NH2
modifications: N-terminus assumed
SMILES: CC(C)C[C@H](NC(=O)[C@H](Cc1ccc(O)cc1)NC(=O)[C@H](CCCCN)NC(=O)[C@H](CO)NC(=O)[C@H](Cc1ccc(O)cc1)NC(=O)[C@H](CC(=O)O)NC(=O)[C@H](CO)NC(=O)[C@@H](NC(=O)[C@H](Cc1ccccc1)NC(=O)[C@@H](NC(=O)CNC(=O)[C@H](CCC(N)=O)NC(=O)C(C)(C)NC(=O)[C@@H](N)Cc1c[nH]cn1)[C@@H](C)O)[C@@H](C)O)C(=O)N[C@@H](CC(=O)O)C(=O)N[C@@H](C)C(=O)N[C@@H](CCCNC(=N)N)C(=O)N[C@@H](C)C(=O)N[C@@H](C)C(=O)N[C@@H](CCC(N)=O)C(=O)N[C@@H](CC(=O)O)C(=O)N[C@@H](Cc1ccccc1)C(=O)N[C@H](C(=O)N[C@@H](Cc1ccc(CNC(=O)CC[C@H](NC(=O)CCCCCCCCCCCCCCCCC(=O)O)C(=O)O)cc1)C(=O)N[C@@H](Cc1c[nH]c2ccccc12)C(=O)N[C@@H](CC(C)C)C(=O)N[C@@H](CC(C)C)C(=O)N[C@@H](CC(=O)O)C(=O)N[C@H](C(N)=O)[C@@H](C)O)C(C)C
B2: TP672 (peptide)
peptide: H[Aib]QGTFTSDYSKYLDARAAK([AEEA-AEEA-γGlu-C18 diacid])DFVQWL[Met(O2)]ET-NH2
modifications: N-terminus assumed
SMILES: CC(C)C[C@H](NC(=O)[C@H](Cc1ccc(O)cc1)NC(=O)[C@H](CCCCN)NC(=O)[C@H](CO)NC(=O)[C@H](Cc1ccc(O)cc1)NC(=O)[C@H](CC(=O)O)NC(=O)[C@H](CO)NC(=O)[C@@H](NC(=O)[C@H](Cc1ccccc1)NC(=O)[C@@H](NC(=O)CNC(=O)[C@H](CCC(N)=O)NC(=O)C(C)(C)NC(=O)[C@@H](N)Cc1c[nH]cn1)[C@@H](C)O)[C@@H](C)O)C(=O)N[C@@H](CC(=O)O)C(=O)N[C@@H](C)C(=O)N[C@@H](CCCNC(=N)N)C(=O)N[C@@H](C)C(=O)N[C@@H](C)C(=O)N[C@@H](CCCCNC(=O)COCCOCCNC(=O)COCCOCCNC(=O)CC[C@H](NC(=O)CCCCCCCCCCCCCCCCC(=O)O)C(=O)O)C(=O)N[C@@H](CC(=O)O)C(=O)N[C@@H](Cc1ccccc1)C(=O)N[C@H](C(=O)N[C@@H](CCC(N)=O)C(=O)N[C@@H](Cc1c[nH]c2ccccc12)C(=O)N[C@@H](CC(C)C)C(=O)N[C@@H](CCS(C)(=O)=O)C(=O)N[C@@H](CCC(=O)O)C(=O)N[C@H](C(N)=O)[C@@H](C)O)C(C)C
B3: TP636 (peptide)
peptide: H[Aib]QGTFTSDYSKYLDARAA[Phe(4-CH2NH2)]([AEEA-AEEA-γGlu-C18 diacid])DFVQWL[Met(O2)][αMeD]T-NH2
modifications: N-terminus assumed
SMILES: CC(C)C[C@H](NC(=O)[C@H](Cc1ccc(O)cc1)NC(=O)[C@H](CCCCN)NC(=O)[C@H](CO)NC(=O)[C@H](Cc1ccc(O)cc1)NC(=O)[C@H](CC(=O)O)NC(=O)[C@H](CO)NC(=O)[C@@H](NC(=O)[C@H](Cc1ccccc1)NC(=O)[C@@H](NC(=O)CNC(=O)[C@H](CCC(N)=O)NC(=O)C(C)(C)NC(=O)[C@@H](N)Cc1c[nH]cn1)[C@@H](C)O)[C@@H](C)O)C(=O)N[C@@H](CC(=O)O)C(=O)N[C@@H](C)C(=O)N[C@@H](CCCNC(=N)N)C(=O)N[C@@H](C)C(=O)N[C@@H](C)C(=O)N[C@@H](Cc1ccc(CNC(=O)COCCOCCNC(=O)COCCOCCNC(=O)CC[C@H](NC(=O)CCCCCCCCCCCCCCCCC(=O)O)C(=O)O)cc1)C(=O)N[C@@H](CC(=O)O)C(=O)N[C@@H](Cc1ccccc1)C(=O)N[C@H](C(=O)N[C@@H](CCC(N)=O)C(=O)N[C@@H](Cc1c[nH]c2ccccc12)C(=O)N[C@@H](CC(C)C)C(=O)N[C@@H](CCS(C)(=O)=O)C(=O)N[C@@](C)(CC(=O)O)C(=O)N[C@H](C(N)=O)[C@@H](C)O)C(C)C
B4: TP637 (peptide)
peptide: H[Aib]QGTFTSDYSKYLDARAAQDFVK([AEEA-γGlu-C18 diacid])WL[Met(O2)]DT-NH2
modifications: N-terminus assumed
SMILES: CC(C)C[C@H](NC(=O)[C@H](Cc1ccc(O)cc1)NC(=O)[C@H](CCCCN)NC(=O)[C@H](CO)NC(=O)[C@H](Cc1ccc(O)cc1)NC(=O)[C@H](CC(=O)O)NC(=O)[C@H](CO)NC(=O)[C@@H](NC(=O)[C@H](Cc1ccccc1)NC(=O)[C@@H](NC(=O)CNC(=O)[C@H](CCC(N)=O)NC(=O)C(C)(C)NC(=O)[C@@H](N)Cc1c[nH]cn1)[C@@H](C)O)[C@@H](C)O)C(=O)N[C@@H](CC(=O)O)C(=O)N[C@@H](C)C(=O)N[C@@H](CCCNC(=N)N)C(=O)N[C@@H](C)C(=O)N[C@@H](C)C(=O)N[C@@H](CCC(N)=O)C(=O)N[C@@H](CC(=O)O)C(=O)N[C@@H](Cc1ccccc1)C(=O)N[C@H](C(=O)N[C@@H](CCCCNC(=O)COCCOCCNC(=O)CC[C@H](NC(=O)CCCCCCCCCCCCCCCCC(=O)O)C(=O)O)C(=O)N[C@@H](Cc1c[nH]c2ccccc12)C(=O)N[C@@H](CC(C)C)C(=O)N[C@@H](CCS(C)(=O)=O)C(=O)N[C@@H](CC(=O)O)C(=O)N[C@H](C(N)=O)[C@@H](C)O)C(C)C
B5: TP638 (peptide)
peptide: H[Aib]QGTFTSDYSKYLDARAAQDFV[Phe(4-CH2NH2)]([AEEA-γGlu-C18 diacid])WLLDT-NH2
modifications: N-terminus assumed
SMILES: CC(C)C[C@H](NC(=O)[C@H](Cc1ccc(O)cc1)NC(=O)[C@H](CCCCN)NC(=O)[C@H](CO)NC(=O)[C@H](Cc1ccc(O)cc1)NC(=O)[C@H](CC(=O)O)NC(=O)[C@H](CO)NC(=O)[C@@H](NC(=O)[C@H](Cc1ccccc1)NC(=O)[C@@H](NC(=O)CNC(=O)[C@H](CCC(N)=O)NC(=O)C(C)(C)NC(=O)[C@@H](N)Cc1c[nH]cn1)[C@@H](C)O)[C@@H](C)O)C(=O)N[C@@H](CC(=O)O)C(=O)N[C@@H](C)C(=O)N[C@@H](CCCNC(=N)N)C(=O)N[C@@H](C)C(=O)N[C@@H](C)C(=O)N[C@@H](CCC(N)=O)C(=O)N[C@@H](CC(=O)O)C(=O)N[C@@H](Cc1ccccc1)C(=O)N[C@H](C(=O)N[C@@H](Cc1ccc(CNC(=O)COCCOCCNC(=O)CC[C@H](NC(=O)CCCCCCCCCCCCCCCCC(=O)O)C(=O)O)cc1)C(=O)N[C@@H](Cc1c[nH]c2ccccc12)C(=O)N[C@@H](CC(C)C)C(=O)N[C@@H](CC(C)C)C(=O)N[C@@H](CC(=O)O)C(=O)N[C@H](C(N)=O)[C@@H](C)O)C(C)C
B6: TP659 (peptide)
peptide: HXQGTFTSDXSKYLDXRAAQDFVQWLLAX
modifications: D-Ser (s) at 2; pAF(PEG2PEG2γEC16OH) at 10; Aib (U) at 16; KγE at 30-31 (γ-glutamic acid after Lys 30); C-terminal amide

Tests used:
[1] = target: human GLP-1 receptor (GLP1R) (human, UniProt P43220 24-463); test: cell-based or functional assay
[2] = target: human Glucagon receptor (GCGR) (human, UniProt P47871 26-477); test: cell-based or functional assay
human Glucagon receptor (GCGR), sequence (P47871 26-477): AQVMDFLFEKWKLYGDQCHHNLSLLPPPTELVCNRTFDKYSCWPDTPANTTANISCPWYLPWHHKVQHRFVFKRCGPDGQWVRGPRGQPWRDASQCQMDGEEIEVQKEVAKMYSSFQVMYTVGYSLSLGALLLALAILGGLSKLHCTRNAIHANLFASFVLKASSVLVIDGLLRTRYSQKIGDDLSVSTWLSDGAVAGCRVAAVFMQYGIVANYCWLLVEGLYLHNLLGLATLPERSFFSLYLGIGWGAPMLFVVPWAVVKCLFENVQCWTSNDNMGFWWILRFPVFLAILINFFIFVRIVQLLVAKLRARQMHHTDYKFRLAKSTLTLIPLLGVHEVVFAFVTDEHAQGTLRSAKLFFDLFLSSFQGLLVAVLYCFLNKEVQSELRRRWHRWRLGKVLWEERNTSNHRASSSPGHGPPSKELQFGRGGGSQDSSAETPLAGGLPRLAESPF

Row | Binder | GLP1R EC50 human [1] [nM] | GCGR EC50 human [2] [nM]
1 | H[Aib]QGTFTSD[Phe(4-CH2NH2)]([AEEA-AEEA-γGlu-C16 diacid])SKYLD[Aib]RAAQDFVQWLL[αMeD]TK-{γGlu-NH2} [TP657] | 2.18 | 0.14
2 | H[Aib]QGTFTSD[Phe(4-CH2NH2)]([AEEA-AEEA-γGlu-C20‑OH])SKYLD[Aib]RAAQDFVQWLLATK-{γGlu-NH2} [TP581] | 1.69 | 4.95
3 | H[αMeS]QGTFTSD[Phe(4-CH2NH2)]([AEEA-AEEA-γGlu-C16 diacid])SKYLD[Aib]RAAQDFVQWLLATK-{γGlu-NH2} [TP660] | 3.59 | 4.54
4 | B1 | 2.09 | 3.38
5 | B2 | 0.51 | 0.35
6 | H[Aib]QGTFTSD[Phe(4-CH2NH2)]([AEEA-AEEA-γGlu-C16 diacid])SKYLD[Aib]RAAQDFVQWL[Met(O2)]ATK-{γGlu-NH2} [TP658] | 1.66 | 3.2
7 | B3 | 0.52 | 0.11
8 | H[Aib]QGTFTSDYSKYLD[Aib]RAAK([AEEA-AEEA-γGlu-C16 diacid])DFVQWLLATK-{γGlu-NH2} [TP662] | 0.52 | 1.45
9 | B4 | 0.53 | 0.94
10 | H[Aib]QGTFTSD[Phe(4-CH2NH2)]([AEEA-AEEA-γGlu-C20‑OH])SKYLDARAAQDFVQWL[Met(O2)]DT-NH2 [TP580] | 0.46 | 1.09
11 | B5 | 1.55 | 5.05
12 | H[Aib]QGTFTSDYSKYLD[Aib]RAAQFVQ[Phe(4-CH2NH2)]([AEEA-AEEA-γGlu-C16 diacid])WLLATK-{γGlu-NH2} [TP667] | > 19.8 | > 19.8
13 | H[Aib]QGTFTSDYSKYLD[Aib]RAAQFVQK([AEEA-AEEA-γGlu-C16 diacid])WLLATK-{γGlu-NH2} [TP666] | > 19.8 | > 19.8
14 | B6 | > 4.9 | 0.46
15 | H[Aib]QGTFTSDYSKYLD[Aib]RAAQ[Phe(4-CH2NH2)]([AEEA-AEEA-γGlu-C16 diacid])FVQWLLATK-{γGlu-NH2} [TP665] | 1.6 | 0.79
16 | H[Aib]QGTFTSDYSKYLD[Aib]RAA[Phe(4-CH2NH2)]([AEEA-AEEA-γGlu-C16 diacid])DFVQWLLATK-{γGlu-NH2} [TP663] | 0.38 | 0.22
